The series has as its target human alpha-thrombin (human, UniProt P00734;P00734 328-363;364-622). As to the kind of experiment: ITC. A general note: Isothermal titration calorimetry measures the heat released or taken up as one component is titrated into another.

As for GGTTGGTGTGGTTGG (structured_DNA) [TBA], the Ka amounted to 8.46e+06 M⁻¹.
